Laboratory results reported in article PMC7686362, “Recent evolution of a TET-controlled and DPPA3/STELLA-driven pathway of passive DNA demethylation in mammals” (Nature Communications, 2020).

T1: mUHRF1 C-terminally tagged with GFP- and 6xHis-tag (mouse, UniProt Q8VDF2 1-782)
T1 construct: UHRF1, mouse (mUHRF1); also called UHRF1-eGFP; recombinant UHRF1-GFP; source: HEK 293T cells, purified (Ni-NTA beads); not shown: GFP, C-terminal, kept
T1 sequence (looked up): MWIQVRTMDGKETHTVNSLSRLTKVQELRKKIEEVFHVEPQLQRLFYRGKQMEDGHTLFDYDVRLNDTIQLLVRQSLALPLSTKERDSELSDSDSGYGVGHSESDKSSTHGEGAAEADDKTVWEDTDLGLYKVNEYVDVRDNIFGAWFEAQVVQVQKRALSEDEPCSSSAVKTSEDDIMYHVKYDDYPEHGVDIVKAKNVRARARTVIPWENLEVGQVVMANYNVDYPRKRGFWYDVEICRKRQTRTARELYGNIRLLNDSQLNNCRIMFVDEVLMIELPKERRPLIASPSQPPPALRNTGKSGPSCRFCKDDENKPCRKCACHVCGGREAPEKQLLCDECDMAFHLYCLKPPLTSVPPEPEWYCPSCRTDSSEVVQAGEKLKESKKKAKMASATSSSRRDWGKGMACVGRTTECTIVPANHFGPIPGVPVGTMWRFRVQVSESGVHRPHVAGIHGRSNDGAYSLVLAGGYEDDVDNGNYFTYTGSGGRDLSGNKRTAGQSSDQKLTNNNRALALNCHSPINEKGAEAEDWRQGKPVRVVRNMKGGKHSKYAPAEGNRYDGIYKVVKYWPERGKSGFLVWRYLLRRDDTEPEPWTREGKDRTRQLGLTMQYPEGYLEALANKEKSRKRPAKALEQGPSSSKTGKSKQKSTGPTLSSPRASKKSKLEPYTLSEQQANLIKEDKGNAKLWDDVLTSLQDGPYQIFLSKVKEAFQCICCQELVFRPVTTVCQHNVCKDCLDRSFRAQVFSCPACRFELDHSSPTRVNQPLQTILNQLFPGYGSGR


Legend:
[1] = target: endogenous UHRF1-GFP (Uhrf1 locus tagged with GFP in mouse ESCs) (mouse (endogenous in J1 ESCs)) (UniProt Q8VDF2)
[2] = target: T1, mUHRF1 C-terminally tagged with GFP- …; assay: MST; 200 nM UHRF1-GFP-6xHis mixed with 0.15 nM to 5 µM GST-DPPA3, 30 min on ice; Monolith NT.115, 80% LED and 80% MST power; details: both partners purified

DPPA3-KRR-mScarlet (K85E/R85E/R87E as printed), sequence (Q8QZY3 whole entry K85E/R87E, stated change not applied): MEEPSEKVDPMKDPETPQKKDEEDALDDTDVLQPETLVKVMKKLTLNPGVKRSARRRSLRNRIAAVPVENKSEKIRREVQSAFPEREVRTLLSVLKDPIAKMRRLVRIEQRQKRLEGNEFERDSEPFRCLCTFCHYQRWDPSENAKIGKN

mobile fraction of UHRF1-GFP by RICS in live ESCs expressing DPPA3-KRR [1] | Kd [2] | Molecule
32.4% |  | DPPA3-KRR-mScarlet (K85E/R85E/R87E as printed) (from UniProt Q8QZY3 1-150) (natural protein)
 | 440 nM | GST-mDPPA3 wild-type (natural protein, mouse, UniProt Q8QZY3 1-150, looked up, DPPA3, mouse, fragment corresponding to the full-length protein amplified from mouse DPPA3 cDNA, in pGEX4T-3; also called GST-DPPA3 WT; D3^WT; source: E. coli BL21-CodonPlus, purified (Glutathione Sepharose, PD10 desalting)) MEEPSEKVDPMKDPETPQKKDEEDALDDTDVLQPETLVKVMKKLTLNPGVKRSARRRSLRNRIAAVPVENKSEKIRREVQSAFPKRRVRTLLSVLKDPIAKMRRLVRIEQRQKRLEGNEFERDSEPFRCLCTFCHYQRWDPSENAKIGKN
